Measurements taken from the supplement of paper PMC9170038.

System: MS2 coat protein
Test: apparent KD of MS2 coat protein; designed switch direction (-1 OFF switch, 1 ON switch): -1; higher = weaker reporter binding
Procedure, shortened: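 Designed RNA switches with common flanks were made on Illumina chips by stalled E. coli RNA polymerase. Titration with SNAP-549-labelled MS2 coat protein doubled from 0.7 or 1.5 nM up to 3 µM. Apparent KD is each design's median over clusters after curve-fitting normalised fluorescence.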

[1] = Eterna round: R95, input ligand: microRNA oligo, concentration not stated
[2] = input ligand: microRNA oligo, concentration not stated
[3] = Eterna round: R95, input ligand: FMN 200 uM
[4] = Eterna round: R95, input ligand: none

Sequence	apparent KD of MS2 coat protein (input ligand: FMN 200 uM) [nM]	apparent KD of MS2 coat protein (input ligand: none) [nM]	apparent KD of MS2 coat protein [1] [nM]	apparent KD of MS2 coat protein [2] [nM]	apparent KD of MS2 coat protein [3] [nM]	apparent KD of MS2 coat protein [4] [nM]
CACACCUCCGUCAGGAUAUUAAGGCACCGCCGCCAUGAGAAGGGACAUGAGGAUCACCCAUGUUAAUCGUGGAA [Betibier] (Eterna round: R97, puzzle: Brourd's mod of Exclusion 4)	226	20.5				
CACCAGCGAGGAUAUACACGUGGUCUCCACUCCCGGUGGUAACAUGAGGAUCACCCAUGUAGAAGGCGCAACAU [Gecedi] (puzzle: Exclusion 2)			44.8			
CACCGUUACAGAGGAUAUGGUACAUGAGGAUCACCCAUGUAAUAAAUGAGAAUUUCGGAUGUAUUCCAGAAGGCUGAAAUCGGC [Ostricism 64 - Jieux - Exclusion NG 2] (Eterna round: R96, puzzle: Exclusion NG 2)	50.2	46.8		30.2		
CACCGUUACCUAGGAUAUAGUACAUGAGGAUCACCCAUGUAAUAAAUGAGAAUUUCGGAUGUAUGCUAGAAGGAGGAAAUCGGC [Ostricism 49 - Jieux - Exclusion NG 2] (Eterna round: R96, puzzle: Exclusion NG 2)				29.7		
CACCGUUACGUAGGAUAUGUUACAUGAGGAUCACCCAUGUAAUAAAUGAGAAUUUCGAAUGUAAUACAGAAGGACGGAAUCGGC [Ostracism 70 - Jieux - Exclusion NG 2] (Eterna round: R96, puzzle: Exclusion NG 2)	53.3	32		26		
CACCGUUAUAUAGGAUAUGUUACAUGAGGAUCACCCAUGUAAUAAAUGAGAAUUUCGAAUGUAAUACAGAAGGAUAGAAUCGGC [Ostracism 72 - Jieux - Exclusion NG 2] (Eterna round: R96, puzzle: Exclusion NG 2)	27.2	22.9		18.1		
CACCUGAAGAGAGGAUAUGAUACAUGAGGAUCACCCAUGUAAUAAAUGAGAAUUUCGAAUGUAAUUCAGAAGGCUCAAUAAGGC [Ostricism 94 - Jieux - Exclusion NG 2] (Eterna round: R96, puzzle: Exclusion NG 2)	107	52		50.8		
CACGGACGAUAAGGAUAUGUUAUAGCUCAAACAGCAGAAGGUGUUAAACCACCGUCACAUGAGGAUCACCCAUGUGUGACAGUU [Eternabot solution 34] (Eterna round: R96, puzzle: Exclusion NG 1)	46.5	40.3		30.7		
CACUUACAUGAGGAUCACCCAUGUGAGGAUAUCGUGACCAGACGAGAAGUCUAUGUCACGAGAAGGCACUUGGG [Exclusion 1 (Mod 2 solution 97 by Eternabot)] (Eterna round: R97, puzzle: Exclusion 1)	114	314				
CAGAACAGAGGAUAUACAUGAGGAUCACCCAUGUGUUCCAGCUAGGAGACUAGCAUAUGUAGAAGGCUGUUCUG [Mat - Exclusion 3 - JL Mod - D12] (Eterna round: R97, puzzle: Exclusion 3)	87.7	161				
CAGAAUUGAGGAUAUGAUCAAUUUAACAUGAGGAUCACCCAUGUAUGGGAAUGAUUCUGAUCAGAAGGCGAUUCUU [Exclusion 5: 1:a] (Eterna round: R96, puzzle: Exclusion 5)	960	633		511		
CAGAAUUGAGGAUAUGAUCAAUUUAACAUGAGGAUCACCCAUGUAUGGGAAUGAUUCUGAUCAGAAGGCGAUUCUU [Exclusion 5: 1:a] (puzzle: Exclusion 5)			285		257	461
CAGCCCUGAGGAUAUACAUGAGGAUCACCCAUGUGAAGAACGGGAAACGAAACCCUCAGUAGAAGGCGGGUCAU [Eternabot (Original) Solution 14] (Eterna round: R97, puzzle: Exclusion 3)	131	58.9				
CAGCUGAAAGUGAGGAUAUCUAGAGCGAUAGCUCUAGAGAAGGCACAUGAGGAUCACCCAUGUGAUCACAGCUG [BmEx4/7-A4] (Eterna round: R97, puzzle: Brourd's mod of Exclusion 4)	1320	249				
CAGCUGAAAGUGAGGAUAUCUAGAGCUGCGGCUCUAGAGAAGGCACAUGAGGAUCACCCAUGUCUCAACAGCUG [BmEx4/1-A3] (Eterna round: R97, puzzle: Brourd's mod of Exclusion 4)	51.9	18.1				
CAGCUGAAUGUGAGGAUAUGUCGAGCCUCGGCUCGAUAGAAGGCACAUGAGGAUCACCCAUGUCUCAACAGCUG [BmEx4/2-C2] (Eterna round: R97, puzzle: Brourd's mod of Exclusion 4)	258	34				

Sequence	apparent KD of MS2 coat protein (input ligand: FMN 200 uM) [nM]	apparent KD of MS2 coat protein (input ligand: none) [nM]	apparent KD of MS2 coat protein [1] [nM]	apparent KD of MS2 coat protein [2] [nM]	apparent KD of MS2 coat protein [3] [nM]	apparent KD of MS2 coat protein [4] [nM]
CAGGAUAGAGGAUAUACAUAGAUACAGAUUCAUGUGAUCCUACAUGAGGAUCACCCAUGUAGAAGGCUAUCCUG [Fiskers Ex 2 - 21] (Eterna round: R96, puzzle: Exclusion 2)	216	348		321		
CAGGAUAGAGGAUAUACAUAGAUACAGAUUCAUGUGAUCCUACAUGAGGAUCACCCAUGUAGAAGGCUAUCCUG [Fiskers Ex 2 - 21] (puzzle: Exclusion 2)			240			
CAGGCGUCUGUGCGUGGUGACAUGAGGAUCACCCAUGUUUUGCUCGUUUUGUCUUGGGCUCGGCGCCCGGGUUCGGG [-24.5, -48.6, A 9%] (Eterna round: R97, puzzle: Sensor, turn-off variant 1)	181	208				
CAGGGCAUAGGAUAUGCGGGUAAACACCAUGCAUUAGAAUGACAUGAGGAUCACCCAUGUAGAAGGAUGAUAGC [Eternabot (L1) Solution 98] (Eterna round: R97, puzzle: Exclusion 2)	28.3	29.2				
CAGGUCCGAGGAUAUAUUAUGUGAAACAUGAGGAUCACCCAUGUUAUAUGAUGGAUGUAAAUAGAAGGCGGACUUG [Mat - Exclusion 5 - JL mod - D64] (puzzle: Exclusion 5)			29.3		23.9	35.3
CAGUACUGAGGAUAUACAUGAGGAUCACCCAUGUGCUCAAAGUAGGAUACUACUAUUAGUAGAAGGCAGUACUG [Fiskers Ex 3 828 mod 21] (puzzle: Exclusion 3)			23.5			
CAGUACUGAGGAUAUACAUGAGGAUCACCCAUGUGCUUUAGCUAGGAUACUAGCAUCAGUAGAAGGCAGUACUG [Fiskers Ex 3 828 mod 11] (puzzle: Exclusion 3)			12.9			
CAGUACUGAGGAUAUACAUGAGGAUCACCCAUGUGUCCUAUAUUAGGAAACUAGGUAUGUAGAAGGCAGUACUG [Omei Ex3 Mod of Eli 4.27 v5] (Eterna round: R97, puzzle: Exclusion 3)	485	340				
CAGUACUGAGGAUAUACAUGAGGAUCACCCAUGUGUCUAAUAUUAGGAAACUAGGUAUGUAGAAGGCAGUACUG [Omei Ex3 Mod of Eli 4.27 v6] (Eterna round: R97, puzzle: Exclusion 3)	318	36.1				
CAGUACUGAGGAUAUACAUGAGGAUCACCCAUGUGUUCCAGCUAGGAAACUAGCAAAAGUAGAAGGUAGUACUG [salish99_ex3_r3_086 (!)] (puzzle: Exclusion 3)			14.7			
CAGUACUGAGGAUAUACAUGAGGAUCACCCAUGUGUUCCAGCUAGGAAGCUAGCAAAAGUAGAAGGCAGUACUG [salish99_ex3_r3_073] (puzzle: Exclusion 3)			26.6			
CAGUACUGAGGAUAUACAUGAGGAUCACCCAUGUGUUCGAGCUAGGAAACUAGCAAAAGUAGAAGGCAGUACUG [salish99_ex3_r3_080] (puzzle: Exclusion 3)			15.4		85.2	14.9
CAGUUUUGAGUGAGGAUAUGUGAUCCAAAGGGUCAACAGAAGGCACAUGAGGAUCACCCAUGUAAUCCAAUUGG [Eternabot (L2) Solution 37] (Eterna round: R97, puzzle: Brourd's mod of Exclusion 4)	1520	3760				
CAUACUAAAGUCAGGAUAUGCAGUCGAAUACGGGUGUAGAAGGGACAUGAGGAUCACCCAUGUAGAUAGUAAAG [EX-4 Malc #20] (puzzle: Brourd's mod of Exclusion 4)			48.9		37.9	42.2
CAUACUGAAGUUAGGAUAUGCGGCCGAAUACGGAUGUAGAAGGGACAUGAGGAUCACCCAUGUAGAUAGUAAAG [EX-4 Malc #15] (puzzle: Brourd's mod of Exclusion 4)			20.1		20.8	20.5
